Assay results: publication PMC7466809

Test system: GST-EZH2
Test: Alpha assay (saturation)
Conditions: RNA-protein binding buffer: 50 mM Tris-HCl pH 7.9, 10 mM beta-ME, 10% glycerol, 5 mM MgCl2, 100 mM KCl, 0.1% NP-40; EMSA 1 h at RT, 1 ug His-EZH2, 0.035 pmol …

## LINC00301 (Alpha assay)
  K half: 228 nM
